Experimental data from US10925971B2, “Methods of treating PRLR positive breast cancer” (Regeneron Pharmaceuticals, Inc., priority 2016, dated 2021).
Like-named read-outs stand apart in the source and are kept apart here.

Key:
[1] = target: T1, monkey PRLR on HEK293/mfPRLR cells (Macaca fascicularis, UniProt A0A2K5WXK1); assay: FACS cell surface binding
T1 construct: HA; expressed in transfected cells; host or cells: HEK293
T1 sequence (A0A2K5WXK1 25-619): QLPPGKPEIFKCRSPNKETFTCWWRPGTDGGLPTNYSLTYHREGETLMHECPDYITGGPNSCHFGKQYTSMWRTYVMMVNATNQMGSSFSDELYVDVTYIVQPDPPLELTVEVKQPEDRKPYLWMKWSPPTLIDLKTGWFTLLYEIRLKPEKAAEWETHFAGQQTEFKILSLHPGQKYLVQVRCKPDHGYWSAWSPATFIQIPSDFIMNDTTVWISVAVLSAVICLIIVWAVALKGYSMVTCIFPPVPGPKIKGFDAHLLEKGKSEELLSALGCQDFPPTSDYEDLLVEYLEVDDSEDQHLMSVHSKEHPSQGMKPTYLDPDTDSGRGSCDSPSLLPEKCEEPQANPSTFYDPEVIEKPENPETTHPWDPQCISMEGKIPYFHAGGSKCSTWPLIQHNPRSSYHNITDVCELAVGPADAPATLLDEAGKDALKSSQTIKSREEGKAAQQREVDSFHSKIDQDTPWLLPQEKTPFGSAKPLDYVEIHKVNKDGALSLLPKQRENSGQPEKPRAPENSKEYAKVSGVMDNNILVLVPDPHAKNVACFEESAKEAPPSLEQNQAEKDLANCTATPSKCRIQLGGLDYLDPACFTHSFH
In short: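 Stable HEK293 transfectants carrying HA-tagged PRLR (human, Macaca fascicularis, mouse) were selected ≥2 weeks in G418. Cells were exposed to 10 μg/ml test antibody on ice for 30 min, washed, and labelled with PE anti-human antibody. Fluorescence was reported as fold change versus isotype.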

MCF7/PRLR tumors = assay: MCF7/PRLR breast cancer xenograft, tumor size and tumor growth inhibition; assay type: in vivo, NCr nude mice
In short: (§1)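 MCF7/PRLR cells in mammary fat pad of female NCr nude mice, PC3/PRLR in flank of male SCID, T47D #11 in flank of female CB17 SCID, all with estrogen pellets.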

PC3/PRLR tumors = assay: PC3/PRLR xenograft, tumor size and tumor growth inhibition; assay type: in vivo, SCID mice; details: for Average Tumor Growth Inhibition (%) / Final Tumor size mm^3 (mean ± SEM): SCID mice
In short: as §1

T47D#11 tumors = assay type: in vivo, CB17 SCID mice; details: for Average Tumor Growth Inhibition (%) / Final Tumor size mm^3 (mean ± SEM): T47D#11 tumors, SCID mice, Day 66
Text: Briefly, 20×10^6 MCF7/PRLR cells (ATCC HTB-22 transfected with full length hPRLR as previously described) were implanted subcutaneously into the left mammary fat pad of female NCr nude mice. In other studies, 10×10^6 PC3/PRLR (ATCC CRL-1435 transfected with full length hPRLR as previously described) were implanted subcutaneously into the left flank of male SCID mice. Additionally, 10×10^6 parental T47D (ATCC HTB-133) or 7.5×10^10 T47D #11 cells (ATCC HTB-133 serially passaged in vivo as described below) were subcutaneously implanted into the left flank of female CB17 SCID mice. All mice were obtained from Taconic (Hudson, N.Y.). Each bolus of cells was supplemented with a 90-day estrogen release pellet (1.7 mg/pellet; Innovative Research America, Sarasota Fla.). […] Control reagents included PBS vehicle, free methyl-disulfide DM1 (DM1-SMe) and isotype Control 1-DM1.
In multi-dose studies, mice were dosed once a week for a total of three weeks with tumor volumes and body weights being monitored twice weekly throughout the study. Test ADCs were dosed at 5 and/or 15 mg/kg in the multi-dose studies. In single-dose studies, mice received a single dose of test ADC, and tumor volumes and body weights were monitored twice weekly throughout the study. Test ADCs were dosed at 1, 2.5, 5, and 15 mg/kg in the single-dose studies. Average tumor size as well as tumor growth inhibition relative to the vehicle treated group were calculated for each group. Tumors were measured with calipers twice a week until the average size of the vehicle group reached 1000 mm^3. Tumor size was calculated using the formula (length×width^2)/2. Tumor growth inhibition was calculated according to the following formula: (1−((Tfinal−Tinitial)/(Cfinal−Cinitial)))*100, where T (treated group) and C (control group) represent the mean tumor mass on the day the vehicle group reached 1000 mm^3. […] Results are summarized in Tables 21-25 (multi-dose) and Table 26 (single dose). (NT=not tested in the particular experiment shown).

[2] = MCF7/PRLR tumors TRIAL #1, NCr Nude mice, multi-dose 15 mg/kg, Day 52
[3] = PC3/PRLR tumors TRIAL #1, multi-dose 15 mg/kg, Day 63
[4] = MCF7/PRLR tumors TRIAL #1, NCr Nude mice, multi-dose 5 mg/kg, Day 52
[5] = MCF7/PRLR tumors TRIAL #2, NCr Nude mice, multi-dose 5 mg/kg, Day 63
[6] = MCF7/PRLR tumors TRIAL #2, NCr Nude mice, multi-dose 15 mg/kg, Day 63
[7] = PC3/PRLR tumors TRIAL #2, multi-dose 5 mg/kg, Day 55
[8] = PC3/PRLR tumors TRIAL #2, multi-dose 15 mg/kg, Day 55

B1: H1H6795P: fully human anti-PRLR antibody, human IgG1 Fc; HCVR/LCVR SEQ ID NOs 162/170 (antibody, V domains shown)
VH: QVQLVQSGAEVKKPGASVKVSCKASGYTFGTSGITWVRQAPGQGLEWMGWSSAYNGKTDYAQKFQDRVTMTTDTSTTTGYMEMRSLTSDDTAVYYCTTVVRRPFDFWGQGTLVTVSS
VL: DIQMTQSPSSLSASVGDRVTITCRASQDINNFLAWFQQKPGKAPKSLIYAASSLQSGVPSKFSGGGSGTDFALTISSLQPEDFATYYCQQYSSYPITFGQGTRLEIK
- FACS Cell Binding [1]: 22 Fold Above Background

B2: H1H6774P: fully human anti-PRLR antibody, human IgG1 Fc; HCVR/LCVR SEQ ID NOs 34/42 (antibody, V domains shown)
VH: EVQLVESGGGLAQPGGSLRLSCVASGFTFSTYWMSWVRQAPGKGLDWVGNIKQDGSEQNYVDSVRGRFTISRDNAKNSLFLQMNSLRAEDTGVYYCATLLTKGDYWGQGTLVTVSS
VL: DIQMTQSPSSLSASVGDSVTITCRASQDISNYLDWFQQKPGKAPKSLIYAASILQGGVPSRFSGSGYGTDFTLTISSLQPEDFATYYCRQYKTYPFTFGPGTKVDIK
- FACS Cell Binding [1]: 29 Fold Above Background

B3: H1H6953N: anti-PRLR antibody, human IgG1 Fc form of H1M6953N of Table 1; HCVR/LCVR SEQ ID NOs 274/282 (antibody, V domains shown)
VH: EVQLLESGGGLVQPGGTLRLSCAASGFTFSAYAMSWVRQAPGKGLEWVSSINVRAGDTYYADSVKGRFTISRDNSKNTLFLLMNSLRAEDTAAYYCAKARYSSNWGFDFWGQGTLVTVSS
VL: DIVMTQSPDSLTVSLGARTTINCQSSQTILHSSNNHNYLAWYQQKPGLPPKLLIYWSSTRESGVPDRFSGSGSGTDFTLTISSLQAEDVAIYYCQQYSNTPYTFGQGTKLEIN
- FACS Cell Binding [1]: 29 Fold Above Background
- Final Tumor size mm^3 (mean ± SEM) (MCF7/PRLR tumors; [2]): 421 ± 23 mm^3
- Average Tumor Growth Inhibition (%) (PC3/PRLR tumors; [3]): 0%
- Final Tumor size mm^3 (mean ± SEM) (PC3/PRLR tumors; [3]): 1306 ± 127 mm^3

B4: H1H6975N: anti-PRLR antibody, human IgG1 Fc form of H2M6975N of Table 1; HCVR/LCVR SEQ ID NOs 370/378 (antibody, V domains shown)
VH: EVHLVESGGGLVQPGGSLRLSCAASGFTFSSYEMNWVRQTPGKGLEWISHISSRSVIIYYADSVKGRFTISRDNAKNSLFLQMNSLRAEDTAVYFCAGITIFGIPEYWGQGTLVTVSS
VL: EIVLTQSPATLSLSPGERATLSCRASQSVSSYFAWYQQKPGQAPRLLIYDASSRATGIPTRFSGSGSGTDFTLTISSLEPEDFAVYYCQQRSSWPITFGQGTRLEIK
modifications: human IgG1 Fc
- FACS Cell Binding [1]: 29 Fold Above Background
- Average Tumor Growth Inhibition (%) (MCF7/PRLR tumors; [2]): 51%
- Final Tumor size mm^3 (mean ± SEM) (MCF7/PRLR tumors; [2]): 659 ± 144 mm^3
- Average Tumor Growth Inhibition (%) (PC3/PRLR tumors; [3]): 12%
- Final Tumor size mm^3 (mean ± SEM) (PC3/PRLR tumors; [3]): 1185 ± 97 mm^3

B5: H1H6797P: fully human anti-PRLR antibody, human IgG1 Fc; HCVR/LCVR SEQ ID NOs 178/186 (antibody, V domains shown)
VH: EVQLVESGGGLVQPGGSLRLSCIVSGFTFSGSWMSWVRQLPGKGLEWVANIKEDGSDSYYVDSVEGRFTISRDNAKSSLYLQMNSLRVDDTAVYFCARARTVPLHYWGQGTLVTVSS
VL: DIQMTQSPSTLSASVGDRVTITCRASQSINIWLAWYQQKPGKAPKLLIYRASYLESGVPSSFAGGGSGTEFTLTISSLQPDDFGTYYCQHYNSYPFTFGQGTKLEIK
- FACS Cell Binding [1]: 25 Fold Above Background

B6: H1H6958N2-DM1: anti-PRLR antibody H1H6958N2 conjugated to the maytansinoid DM1 through an SMCC linker (conjugate)
VH: QVQLVESGGGVVQPGRSLRLSCGASGFTFRNYGMQWVRQGPGKGLEWVTLISFDGNDKYYADSVKGRFTISRDNSKNTLFLQMNSLRTEDTAVYYCARGGDFDYWGQGTLVTVSS
VL: DIQMTQSPSSLSASVGDRVTITCRASQDIRKDLGWYQQKPGKAPKRLIYAASSLHSGVPSRFSGSGSGTEFTLTISSLQPEDFATYYCLQHNSYPMYTFGQGTKLEIK
- Average Tumor Growth Inhibition (%) (T47D#11 tumors; multi-dose 5 mg/kg): 102%
- Final Tumor size mm^3 (mean ± SEM) (T47D#11 tumors; multi-dose 5 mg/kg): 168 ± 19 mm^3
- Average Tumor Growth Inhibition (%) (T47D#11 tumors; multi-dose 15 mg/kg): 112%
- Final Tumor size mm^3 (mean ± SEM) (T47D#11 tumors; multi-dose 15 mg/kg): 44 ± 5 mm^3
- T47D #11 tumor growth (T47D#11 tumors; repeat dosing 5 and 15 mg/kg): potently inhibited tumor growth
- Average Tumor Growth Inhibition (%) (MCF7/PRLR tumors; [4]): 128%
- Final Tumor size mm^3 (mean ± SEM) (MCF7/PRLR tumors; [4]): 51 ± 33 mm^3
- Average Tumor Growth Inhibition (%) (MCF7/PRLR tumors; [2]): 133%
- Final Tumor size mm^3 (mean ± SEM) (MCF7/PRLR tumors; [2]): 0 ± 0 mm^3
- Average Tumor Growth Inhibition (%) (MCF7/PRLR tumors; [5]): 116%
- Final Tumor size mm^3 (mean ± SEM) (MCF7/PRLR tumors; [5]): 117 ± 10 mm^3
- Average Tumor Growth Inhibition (%) (MCF7/PRLR tumors; [6]): 137%
- Final Tumor size mm^3 (mean ± SEM) (MCF7/PRLR tumors; [6]): 0 ± 0 mm^3
- MCF7/PRLR tumor growth (MCF7/PRLR tumors; first multi-dose trial, 5 and 15 mg/kg): potently inhibited MCF7/PRLR tumor growth
- tumor volume relative to vehicle control tumors (MCF7/PRLR tumors; single dose 1 mg/kg): significant decrease in tumor volume
- Final Tumor size mm^3 (mean ± SEM) (PC3/PRLR tumors; PC3/PRLR tumors TRIAL #1, multi-dose 5 mg/kg, Day 63): 1247 ± 171 mm^3
- Average Tumor Growth Inhibition (%) (PC3/PRLR tumors; [3]): 46%
- Final Tumor size mm^3 (mean ± SEM) (PC3/PRLR tumors; [3]): 808 ± 83 mm^3
- Average Tumor Growth Inhibition (%) (PC3/PRLR tumors; [7]): 61%
- Final Tumor size mm^3 (mean ± SEM) (PC3/PRLR tumors; [7]): 566 ± 63 mm^3
- Average Tumor Growth Inhibition (%) (PC3/PRLR tumors; [8]): 94%
- Final Tumor size mm^3 (mean ± SEM) (PC3/PRLR tumors; [8]): 230 ± 22 mm^3
- PC3/PRLR tumor growth (PC3/PRLR tumors; multi-dose, especially at 15 mg/kg): demonstrated inhibition of tumor growth

B7: H1H6958N2: anti-PRLR antibody, receptor blocking, human IgG1 Fc form of H2M6958N2 of Table 1; HCVR/LCVR SEQ ID NOs 290/298 (antibody, V domains shown)
VH: QVQLVESGGGVVQPGRSLRLSCGASGFTFRNYGMQWVRQGPGKGLEWVTLISFDGNDKYYADSVKGRFTISRDNSKNTLFLQMNSLRTEDTAVYYCARGGDFDYWGQGTLVTVSS
VL: DIQMTQSPSSLSASVGDRVTITCRASQDIRKDLGWYQQKPGKAPKRLIYAASSLHSGVPSRFSGSGSGTEFTLTISSLQPEDFATYYCLQHNSYPMYTFGQGTKLEIK
- FACS Cell Binding [1]: 30 Fold Above Background
- Average Tumor Growth Inhibition (%) (T47D#11 tumors; multi-dose 15 mg/kg): −3%
- Final Tumor size mm^3 (mean ± SEM) (T47D#11 tumors; multi-dose 15 mg/kg): 1259 ± 122 mm^3
- Average Tumor Growth Inhibition (%) (MCF7/PRLR tumors; [2]): 74%
- Final Tumor size mm^3 (mean ± SEM) (MCF7/PRLR tumors; [2]): 483 ± 46 mm^3
- Average Tumor Growth Inhibition (%) (MCF7/PRLR tumors; [6]): 17%
- Final Tumor size mm^3 (mean ± SEM) (MCF7/PRLR tumors; [6]): 766 ± 128 mm^3
- Final Tumor size mm^3 (mean ± SEM) (MCF7/PRLR tumors; MCF7/PRLR tumors, single dose 15 mg/kg, Day 55): 703 ± 160 mm^3
- Average Tumor Growth Inhibition (%) (PC3/PRLR tumors; [3]): −19%
- Final Tumor size mm^3 (mean ± SEM) (PC3/PRLR tumors; [3]): 1507 ± 106 mm^3
- Average Tumor Growth Inhibition (%) (PC3/PRLR tumors; [8]): 28%
- Final Tumor size mm^3 (mean ± SEM) (PC3/PRLR tumors; [8]): 917 ± 253 mm^3
